# Source: PMC6850750 (Biochemistry, 2019)
# Target: the molecule itself
# Assay: SEC
protein,measurement,value
"YdjI (enzyme, E. coli K12, Cys234 oxidized to cysteic acid (seen in the electron density of each subunit)) MLADIRYWENDATNKHYAIAHFNVWNAEMLMGVIDAAEEAKSPVIISFGTGFVGNTSFEDFSHMMVSMAQKATVPVITHWDHGRSMEIIHNAWTHGMNSLMRDASAFDFEENIRLTKEAVDFFHPLGIPVEAELGHVGNETVYEEALAGYHYTDPDQAAEFVERTGCDSLAVAIGNQHGVYTSEPQLNFEVVKRVRDAVSVPLVLHGASGISDADIKTAISLGIAKINIHTELCQAAMVAVKENQDQPFLHLEREVRKAVKERALEKIKLFGSDGKAE",stoichiometry N,4
